Columns and labels:
[1] = biological target: T1, CD47 on the cell membrane surface of human cells (normal human RBCs, Raji, LOVO) (human, UniProt Q08722 19-323); assay: flow cytometry on Raji cells
T1 construct: whole, on cells; also called CD47 on the cell membrane surface of normal human RBCs; CD47 on the cell membrane surface of Raji cells

human CD47 IgV TEV-His [2] = biological target: T2, human CD47 IgV TEV-His (human, UniProt Q08722 19-141); assay: competitive ELISA vs SIRPα ECD-hFc-Biotin 0.1 ug/mL on coated CD47 IgV TEV-His (blocking EC50)
T2 construct: range 19-141; Recombinant fusion protein synthesized by Akeso; residue numbers count on NP_942088.1; not shown: his tag

[3] = biological target: T1, CD47 on the cell membrane surface of …; assay: flow cytometry competition vs SIRPα-ECD-mFc on LOVO cells
[4] = biological target: T1, CD47 on the cell membrane surface of …; assay: flow cytometry competition vs SIRPα-ECD-mFc 20 nM on Raji cells
Experimental: Raji cells in the log phase were routinely collected, centrifuged and washed. The cell pellets were resuspended in 1% PBSA and counted, and the viability was determined. The cell concentration was adjusted with 1% PBSA into a suitable range, and the cells were transferred in groups into 1.5 mL tubes at 500 μL per tube, for a total of 0.3 million cells. The cells were centrifuged at 5600 rpm for 5 min, and the supernatant was discarded. The antibody serially diluted was added (final concentrations in descending order: 1, 0.3, 0.1, 0.01, 0.001, 0.0001 nM), and a blank control (100 μL of 1% PBSA+ cells) and an isotype control (human hIgG) were set up, followed by incubation on ice for 30 min. […] 1% PBSA was added, followed by centrifugation at 5600 rpm for 5 min, and the supernatant was discarded. 100 μL of FITC goat anti-mouse IgG (1:500 dilution) was added to each tube, followed by incubation on ice for 40 min in the dark. 500 μL of 1% PBSA was added, followed by centrifugation at 5600 rpm for 5 min, and the supernatant was discarded. 200 μL of 1% PBSA was added to resuspend the cell pellets. Fluorescence signals were detected with FITC channel on a flow cytometer.

[5] = biological target: T1, CD47 on the cell membrane surface of …; assay: flow cytometry on LOVO cells
Experimental: The cell pellets were resuspended in 500 μL of 1% PBSA and counted, and the viability was determined. The cells were transferred to 1.5 mL tubes according to 3.0×10⁵ cells/500 μL/tube, and centrifuged at 5600 rpm for 5 min, and the supernatant was discarded. […] Then 500 μL of 1% PBSA was added, followed by centrifugation at 5600 rpm for 5 min, and the supernatant was discarded. 100 μL of FITC goat anti-human IgG (1:500) was added to each tube, and the mixtures were well mixed and incubated on ice for 30 min in the dark. 500 μL of 1% PBSA was added, followed by centrifugation at 5600 rpm for 5 min, and the supernatant was discarded. 200 μL of 1% PBSA was added to each tube to resuspend the cells, and the suspensions were transferred to flow cytometry tubes and detected by a flow cytometer BD FACSCalibur. The results were analyzed using Flowing software, and curve fittings were performed separately using MFI and sample concentration on GraphPad prism 5 to calculate EC50.

human CD47 IgV TEV-His [6] = biological target: T2, human CD47 IgV TEV-His; assay: Biacore SPR, CD47 IgV-TEV-His amine-coupled to chip, antibody 0.78-12.5 nM, 1:1 model
Experimental: The buffer solution was PBST. […] The antibody and human CD47 were subjected to dissociation for 300 s. The chip was regenerated with 3 M MgCl₂ for 30 s at a flow rate of 30 μL/min. The data were analyzed by 1:1 model fitting to obtain affinity constants. Data were acquired using Biacore Control 2.0 software and analyzed using Biacore T200 Evaluation 2.0 software.

[7] = biological target: T1, CD47 on the cell membrane surface of …; assay: flow cytometry on human RBCs
Experimental: Fresh blood was mixed well with blood buffer (blood dilution ratio of 1:3 after concentration). […] The tubes were each centrifuged at 1550 rpm for 30 min after balancing. The PBMCs in the middle buffy coat layer were pipetted. The blood buffer was added in a volume ratio of cells to blood buffer of 1:4. The resulting mixture was well mixed and centrifuged at 950 rpm for 15 min, and the supernatant was discarded. 20 mL of the blood buffer was added to resuspend PBMCs. The resulting suspension was centrifuged, and the supernatant was discarded. Centrifugation was performed, followed by two washings. […] Centrifugation was performed and the supernatant was discarded. […] 500 μL of 1% PBSA was added to each tube, followed by centrifugation at 5600 rpm for 5 min. The supernatant was discarded. 100 μL of the antibody with a corresponding concentration was added (final concentrations: 300, 100, 10, 1, 0.1, 0.01, 0.001 nM) to each tube, and a Blank (PBSA+ cells) and an isotype control were designed, followed by incubation on ice for 1 h. […] 200 μL of 1% washing buffer was added to each tube to resuspend the cells, and fluorescence signals were detected with FITC channel on a flow cytometer. The results were analyzed using Flowing software, and curve fittings were performed separately using MFI and sample concentration on GraphPad prism 5 to calculate EC50.

[8] = biological target: T1, CD47 on the cell membrane surface of …; assay: flow cytometry competition vs SIRPα-mFc 20 nM on LOVO cells
Experimental: The cell pellets were resuspended in 1% PBSA and counted, and the viability was determined. The cell concentration was adjusted with 1% PBSA into a suitable range, and the cells were transferred in groups into 1.5 mL tubes at 500 μL per tube, for a total of 0.3 million cells. The cells were centrifuged at 5600 rpm for 5 min, and the supernatant was discarded. The antibody serially diluted was added (final concentrations in descending order: 300, 100, 10, 1, 0.3, 0.1, 0.01, 0.001, 0.0001 nM), and a blank control (100 μL of 1% PBSA+ cells) and an isotype control (human hIgG) were set up, followed by incubation on ice for 30 min. […] 1% PBSA was added, followed by centrifugation at 5600 rpm for 5 min, and the supernatant was discarded. 100 μL of FITC goat anti-mouse IgG (1:500 dilution) was added to each tube, followed by incubation on ice for 40 min in the dark. 1% PBSA was added, followed by centrifugation at 5600 rpm for 5 min, and the supernatant was discarded. 200 μL of 1% PBSA was added to resuspend the cell pellets, and the suspensions were transferred to flow cytometry tubes. Fluorescence signals were detected with FITC channel on a flow cytometer. Curve fittings were performed separately using MFI and sample concentration to calculate EC50.

human CD47 IgV TEV-His [9] = biological target: T2, human CD47 IgV TEV-His; assay: competitive ELISA vs SIRPα ECD-hFc-Biotin 0.1 ug/mL on coated CD47 IgV TEV-His (blocking EC50); remark: listed apart in the source
Experimental: Experimental procedures: A microplate was coated with 2 μg/mL human CD47 IgV TEV-His at 50 μL per well and incubated at 4° C. for 16 h. The microplate was washed once and tapped dry, blocked with 1% BSA (in PBS) at 300 μL per well, incubated at 37° C. for 2 h, and washed three times and tapped dry. […] Two duplicate wells were set for the above concentrations, with a final volume of 50 μL per well, and the plate was incubated for 10 min. […] The microplate was washed three times and tapped dry. 50 μL of SA-HRP (KPL, 14-30-00) working solution was added to each well, and the microplate was incubated at 37° C. for 30 min. The microplate was washed four times and tapped dry. 50 μL of TMB chromogenic solution was added to each well for color developing for 5 min at room temperature in the dark, and then the color development was terminated by adding 50 μL of stop solution to each well. Then the microplate was put into a microplate reader immediately, and the OD value of each well in the microplate was read at 450 nm. The data were analyzed and processed by SoftMax Pro 6.2.1.

[10] = biological target: T1, CD47 on the cell membrane surface of …; assay: flow cytometry on Raji cells; remark: listed apart in the source
Experimental: Raji cells in the log phase were collected, centrifuged, and washed. The cell pellets were resuspended in 1% PBSA and counted, and the viability was determined. The cells were transferred to 1.5 mL tubes according to 3.0×10⁵ cells/500 μL/tube, and centrifuged at 5600 rpm for 5 min, and the supernatant was discarded. 100 μL of the corresponding antibody serially diluted was added to each tube according to the experimental design, and a blank group (PBSA+ cells) and an isotype control (hIgG) group were designed, followed by incubation on ice for 1 h. Then 1% PBSA was added, followed by centrifugation at 5600 rpm for 5 min, and the supernatant was discarded. 100 μL of FITC goat anti-human IgG (1:500) was added to each tube, and the mixtures were well mixed and incubated on ice for 30 min in the dark. 500 μL of 1% PBSA was added, followed by centrifugation at 5600 rpm for 5 min, and the supernatant was discarded. 1% PBSA was added to each tube to resuspend the cells, and fluorescence signals were detected with FITC channel on a flow cytometer. Curve fittings were performed separately using MFI and sample concentration to calculate EC50.

human CD47 IgV TEV-His [11] = biological target: T2, human CD47 IgV TEV-His; assay: indirect ELISA, coated CD47 IgV TEV-His 2 ug/mL
Experimental: Experimental procedures: A microplate was coated with 2 μg/mL human CD47 IgV TEV-His and incubated at 4° C. for 12 h. The antigen-coated microplate was rinsed 3 times with PBS, and then blocked with 1% BSA in PBS for 2 h. The microplate was rinsed 3 times with PBS. The antibody serially diluted with PBST solution was added into the wells of the microplate, the dilution gradients for the antibody detailed in Table 2. The microplate containing the test antibody was incubated at 37° C. for 30 min, and then washed 3 times with PBST. […] The microplate was washed 3 times with PBST. […] Then the microplate was put into a microplate reader immediately, and the OD value of each well in the microplate was read at 450 nm. The data were analyzed by SoftMax Pro 6.2.1.

human CD47 IgV TEV-His [12] = biological target: T2, human CD47 IgV TEV-His; assay: Fortebio BLI, antibody amine-coupled to AR2G sensor, antigen 3.125-100 nM
Text: The sensor was equilibrated in PBST for 300 s. […] The antigen and the antibody were subjected to dissociation in PBST for 600 s.

B1: 6F7 H1L1(hG4) (antibody, human IgG4, kappa)
heavy: not shown
light: NIVMTQSPATMSMSPGERVTLSCRASEIVGTYVSWFQQKPGQAPRLLIYGASNRYTGVPARFSGSGSGTDFTLTISSVQPEDLADYHCGQSYNFPYTFGGGTKLEIKRTVAAPSVFIFPPSDEQLKSGTASVVCLLNNFYPREAKVQWKVDNALQSGNSQESVTEQDSKDSTYSLSSTLTLSKADYEKHKVYACEVTHQGLSSPVTKSFNRGEC
notes: Humanized 6F7
Binder B1 has an EC50 [1] of 0.32 nM, an EC50 (human CD47 IgV TEV-His [2]) of 0.194 nM and an EC50 [3] of 0.1 nM. For the same binder, the EC50 [4] was 0.017 nM, the EC50 [5] was 0.02 nM and the Kd (human CD47 IgV TEV-His [6]) was 0.152 nM. The EC50 [7] was 0.6 nM.

B2: 6F7 H1L1(G1M) (antibody, human IgG1, kappa, L234A L235A)
heavy: not shown
light: B1 light
notes: Humanized 6F7; also called 6F7 H1L1(hG1DM)
Work on B2 yielded an EC50 [8] of 0.16 nM, an EC50 (human CD47 IgV TEV-His [9]) of 0.274 nM and an EC50 [10] of 0.013 nM. The EC50 (human CD47 IgV TEV-His [11]) was 0.037 nM.

B3: murine antibody 6F7 (antibody, V domains shown)
VH: QVQLQQPGAELVRPGASVKLSCKASGYTFTSYWMNWVKQRPGQGLEWIGMIDPSDSETHNNQMFKDKATLTVDKSSNTAYMHLSSLTSEDSAVYHCARLYRWYFDVWGAGTTVTVSS
VL: NIVMTQSPKSMSMSLGERVTLSCKASEIVGTYVSWFQQKPHQSPKLLIYGASNRYTGVPDRFTGSGSATDFTLTISNVQAEDLADYHCGQSYNFPYTFGGGTKLEIK
notes: Murine hybridoma antibody purified on protein A; also called monoclonal antibody secreted by hybridoma cell line LT012 (CD47-6F7)
B3 showed a Kd (human CD47 IgV TEV-His [12]) of 0.652 nM, a koff (human CD47 IgV TEV-His [12]) of 0.000256 s⁻¹ and a kon (human CD47 IgV TEV-His [12]) of 393000 M⁻¹ s⁻¹.
